Holding throughout (test): SEC; Size-exclusion chromatography of the purified His6-tagged recombinant proteins. Column and buffer are not told for these proteins. Dimerization was not detected consistently under the authors' conditions.
Assay [1] has as its target Mase04140 (PL17 family alginate lyase, subfamily 2, Alteromonas macleodii) (Alteromonas macleodii).
Assay [2] concerns the target Pedsa1196 (PL17 family alginate lyase, subfamily 2, Pedobacter saltans) (Pedobacter saltans).
Assay [3] concerns the target Valg4460 (PL17 family polysaccharide lyase, subfamily 2, Vibrio alginolyticus) (Vibrio alginolyticus).

As to “Mase04140 (PL17 family alginate lyase, subfamily 2, Alteromonas macleodii) (enzyme)”, in assay [1], the stoichiometry N was found to be 2.

“Pedsa1196 (PL17 family alginate lyase, subfamily 2, Pedobacter saltans) (enzyme)”: the stoichiometry N in assay [2] was found to be 2. For the substance “Valg4460 (PL17 family polysaccharide lyase, subfamily 2, Vibrio alginolyticus) (enzyme)”, the stoichiometry N in assay [3] is 2.

For the origin of these results see publication PMC5966431.
